One molecule from US20030026800A1 can be followed below.

In assay [1] the target is antigen of Daudi B lymphoblastoid cells to which the mAbs of the invention bind. Briefly: FACS double labelling, peripheral blood lymphocytes of breast carcinoma patients.
For assay [2] the target is unchanged. Briefly: FACS double labelling, peripheral blood lymphocytes of colon carcinoma patients.
Assay [3] has the same target. Briefly: FACS double labelling, peripheral blood lymphocytes of prostate carcinoma patients.
Assay [4] has the same target. Briefly: FACS double labelling, peripheral blood lymphocytes of healthy individuals.

B1: mouse BAT antibody (antibody, V domains shown)
VH: QIQLVQSGPELKKPGETVKISCKASGYTFTNYGMNWVKQAPGKGLKWMGWINTDSGESTYAEEFKGRFAFSLETSANTAYLQINNLNNEDTATYFCVRVGYDALDYWGQGTSVTVSS
VL: QIVLTQSPAIMSASPGEKVTITCSARSSVSYMHWFQQKPGTSPKLWIYRTSNLASGVPARFSGSGSGTSYCLTISRMEAEDAATYYCQQRSSFPLTFGSGTKLEIK
For the molecule B1, the percent of CD3+ BAT+ cells (of total CD3+ cells) in assay [1] came to 10%; in assay [2], 7%; in assay [3], 50%; in assay [4] it was 25%.
